assay: label from the status in PepcDB records
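Also: failed if final PepcDB status was selected cloned or expressed and not failed if soluble or beyond.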

Sequence | protein production
MASMTGGQQMGRGSEEPNPNDGYDYMQHGFDWPGLQEGGTTKYPACSGSNQSPIDINTNQLMEPSSRSGTSAVSLNGLNVDGAQADGITLTNAKVDLEQGMKVTFDQPAANLPTIEIGGTTKSFVPIQFHFHHFLSEHTINGIHYPLELHIVMQEQDPADVATAQLAVIGIMYKYSENGDAFLNSLQTQIEGKIGDGTASYGDTGVSIDNINVKTQLLPSSLKYAGYDGSLTTPGCDERVKWHVFTTPREVTREQMKLFVDVTMGAHAGADVVNNRMIQDLGDREVYKYNY | not failed
MASQQEKKQLDERAKKGETVVPGGTGGKSFEAQQHLAEGRSRGGQTRKEQLGTEGYQQMGRKGGLSTGDKPGGEHAEEEGVEIDESKFRTKT | failed
MASRDAQEPSLHAADPSIVRPCEQHGGVLAGSVSSHPAAAECASHTPTLETGAPCAAGSAPSAPMTDQGARSPRAADSMPASSLERDERARRIACRLPSSAIRLPAFGEAVSRPNAGSSVDATATKASLPSAGDDGLGNSREEQGTTCSEPDLHGVPENDQVEVCVGGRGILRPRSYQRQAPQRCGLPGMAPETAARPDHTARNELEEALARQRARLAEPDASGDIHGRHAG | failed
MASRFQEASLVTSPSYPNAVAWSSENLIAVAAGHLVIIINPALPTGPRGLITISDAELYQIGRVRSQDLLTGGLLPSSLKRERSPCVRSLSWSEIGMSPNHGCLLAVCTAEGRVKLYRPPYSDFCAEWIEIVDISKMLYENLSSMNFGESKNPSTSLSKDQVVEHDHEEDERISSLKARKRRKTSANNINLHEKNYTDRASCSKQDSKAEHNVLEIEVYKQASNGQDRRSLPKALKKCSQEISPQTYVSREALLSSHSVAWSSLLRFSSESSCGNMLRFSLLAIGSKSGSVSIWKVHAPECYHIERSNVSPMVELTAIVQTHSSWVSTMSWGIFGCDSSNPQVVLVTGSCDGSVKIWMSNKEDLQNSVEVYKSSFFLLKEVVAVNPVQVSTLSFVVSNHYNAMHLAIGKGSGSFEVWKCEISTRKFEQIVSTNAHNQVVTGLAWSYDGRCLYSCSQDNYVRSWILCENAISEVPIPANTPGLSSTTDLPDDFLSCLGVALSPGNLAVALVRNFNVELLNPMYQARSQKAAVEFLWNGAQQSGESEDSTETVTEAILGFSKNEFANWESNILWSLKEFNYLNKPLVLWDMVAAMLAFKQSMPEFVELVLTKWLSVSYLGFHDDISMEDLVPKITKRFSDVPSRLLHILNVISRRVMLSELKTEEINRKLQGQRTNDEGEIDLWLKLLQESERELRERLVGLSFSAYLLAESSQGTISPPSWNWRPAGLALLQQWVEINRDIVHSQLETLSLEVKSSRTRSSNSTETALEEEKCPYCAAPVNFHSAEEAFCESSHQKKKKSKDKERCDESHKLERCCVSMQVCPPTPLWFCKCCNRMTLELAPETLFALPSFPSDLKSLPKSSFSKVASKPFCLFCGVLLQRKQPEFLLSASPV | failed
MASRPSVRHPSHNHPLRGHKAQVEDEIICSGCDLDLLGAYFKCTKSECDYFLHKSCFDLPREIRHKSHPDHPLILLYSPQNNNSTYTCDACGEYGSGFTYNCSICQYDVHVGCVSVPETMKHDEHVHPLALIYKAPCPKDHIFTCDVCDETMPHNLWLYYCQKCDYGAHLHSCVAEEEEKSKKGGRGRGGEGGSGGNGVNRGRSSANSELAAMLKAQREMEQMQIALHLEMQRAKIDKKSRKHMLKMI | failed
MASSSSSPTPSAAAAVSPLTEEELTLTVKWNGKEYTVRICADDSVAELKRRICLLTTVLPKRQKLLYPKIGNKLSDDSLLLSSISFKPSLKMTMIGTVEDDIIVDQAESPEIVDDFELGKEEAVDVKDKEVNKQKLRRRIDQYKINLRTPCRQGKKLLVLDIDYTLFDHRSTAENPLQLMRPYLHEFLTAAYAEYDIMIWSATSMKWVELKMTELGVLNNPNYKVTALLDHLAMITVQSDTRGIFDCKPLGLIWALLPEFYNPGNTIMFDDLRRNFVMNPQNGLTIKPFRKAHANRDTDQELVKLTQYLLTIAELSDLSSLHHSRWESFSQDNVKRRRQE | failed
MASSTRSTRSTPARGKSKGASGNVTPWLWMAFALLVVMIDQFFKVVITRSFQYGESRPITSFFNLVLVYNKGAAFSFLADAGGWQRWFFTLLGVVVGAFIIWLLYRHTGQKLFCLAVSLILGGAVGNVVDRIIHGHVIDFLDFHLRNTHFPAFNVADCAITLGAILLIVDELRRVRRH | failed
MASSTTSTVTDLSAALVMAPVPLADWLIILPIALCIGAGAVLMMMRHAIRHHAAVAIAALSLLVILNAALLWKVATQGPFTMVMGRWLPPFGIAFTADLTGALLSLAAAIVALAGAIHAGADIDASGRRYGFYPFLMLLMAGVTGAFLTGDLFNLYVWFEVLLISSFGLIVLGSTREQIDGALKYAILNLIGTTLFLITVGYLYAIFGTLNMADIALKATELRGTAPLMTLASLFALAFAMKAAAFPVNFWLPASYHTPRIVVSALFGGLLTKVGIYSLLRVMVMLFPVEREELSIVIAISAALTMVLGAMGALAQNDIRRMLGYIVISGIGYMMAGIAIGTPSGVSGAIFYALHSMVLMTALYLAAGHAARLGGGFSLTSLGDLYRQAPWFSALALALFFAGSGLPPFSGFWPKAVLVKSAIDIGAWWLAAAILVSGFIATIAFGRVFLLCFWRPVTTSAGQPALQPAARPPAPSVAPLVGLTLLVVFFGLFPESLLNLSQQAAAGLGNPQAYIQSVFPQGGKP | failed
MASSVDEEALHQLYLWVDNIPLSRPKRNLSRDFSDGVLVAEVIKFYFPKMVEMHNYVPANSLQQKLSNWGHLNRKVLKRLNFSVPDDVMRKIAQCAPGVVELVLIPLRQRLEERQRRRKQ | not failed
MASTIYTCKECGSDLNLNPNDLFPPDFYFEAGNKGTLSFAAVDAEKFRFEKEDKIMPFFETLNYWGIQRKRTKIKCTSCNHLIGYIYDDGPPLTGGIGQYGFGPSQVIPRAPRYRFKTKARQDGWQYGGLTAFWN | failed
MASTVSVQPGRIRILKKGSWQPLDQTVGPVVYWMFRDQRLKDNWALIHAVDLANRTNAPVAVVFNLFDQFLDAKARQLGFMLKGLRQLHHQIDSLQIPFFLLQGDAKETIPNFLTECGASHLVTDFSPLREIRRCKDEVVKRTSDSLAIHEVDAHNVVPMWAASSKLEYSARTIRGKINKLLPDYLIEFPKLEPPKKKWTGMMDKKLVDWDSLIDKVVREGAEVPEIEWCVPGEDAGIEVLMGNKDGFLTKRLKNYSTDRNNPIKPKALSGLSPYLHFGQVSAQRCALEARKVRSTSPQAVDTFLEELIVRRELSDNFCYYQPHYDSLKGAWEWARKSLMDHASDKREHIYSLEQLEKGLTADPLWNASQLEMVYQGKMHGFMRMYWAKKILEWTKGPEEALSISIYLNNKYEIDGRDPSGYVGCMWSICGVHDQGWKERPVFGKIRYMNYAGCKRKFNVDSYISYVKSLVSVTKKKRKAEEQLTRDSVDPKITIV | failed
MASVSVSHLILFIASMAIAASVAGVFTSSIGELSNAVSEQGLDVSSDVRTDVEIISDSGSDTIYDSGANTITVHVKNTGSETLAPVPGQVDVFVDGTFASDYTVTLEPNGGNSWRPGEVVRIDINDNLSGGDHRLKLIVNGDEEVFEFNT | failed
MASWSLRTVPPKMGRVVNCQNHITAGGGRRTLMKIILTGATGFVGCSLVPLLHQQGHELTLLVRSVSKAQRLFAPGSFPQLKAIAYEATKSGDWQKVVDGQDAVINLAGEPISERWTEAYKAEIFDSRKLGTEKLVEAIAKADRKPQVMISGSAIGYYGTSETATFTESSKPGDDFLAEVCQAWENAAHQVEQLGVRLVVFRIGIVLGADGGALAKMLPPFKLFAGGPLGSGEQWFSWIDRRDLIALIDKALTDSTLRGTYNATAPNPVKMKEFCHTLGKVLARPSWLPVPDIALELLLGEGAKLVLEGQEVLPGAISKTDFQFQAPDLETSLRQILGS | failed
MASYDQISKNNWRYRISLGKNAETGKYEYISKTGFKRKSDAKHQAEMIGRQLRNGDYIAPSSSTFKQVADDWLKQYANDVKVSSVRAREKAIQHAIERFNTKPIQTIKKHDYQRFVDDISAQYSKNYVDSIVASTNMIFKYAYDTRLIKAMPSEGIKRPKKKVSVEELEDIEIHKKFLEKDELFQFLKVAKYHHSPQNSFEVFTTLAYTGMRAGELLALKWSDIDFENNTISITKTYYNPNNNKKHYQILTRKTESSIGKITVDPHVIQLLKDYKVNVQDTWKNELYVDNNFVFTDVNGYPLVIKKLQLWIKAILKKTDITNKQISTHSFRYTHYALLIEAGVHIKEIQERLRHKDINTTMNIYAKITNSYKKDASQKFSKLMENVSKGLF | failed
MASYTLRQLKYFVTTVECGSVAEASRKLYIAQPSISTAVKGLEESFGVQLFIRHHAQGVSLTPAGARFYRKAQELLRMAHEFEQNALADNDVIAGQIDIGCFETVAPLYLPGLIAGFRQAYPGVEIRIRDGEQQELVQGLTSGRFDLAFLYEHDLDSTIETEPLMPPQRPHALLPEGHRFAGQAQVSLRDLCLEPMILLDVQPSRTYFVSLFEELGLTPNIAFSSPSIEMVRGMVGQGFGFSLLVTRPHSECTYDGKKVVMVDLAEPVSTSGLAAAWLKRAQLTKPARLFVDYCREQLGKLAERRH | not failed
MATAGNPWGWFLGYLILGVAGSLVSGSCSQIINGEDCSPHSQPWQAALVMENELFCSGVLVHPQWVLSAAHCFQNSYTIGLGLHSLEADQEPGSQMVEASLSVRHPEYNRPLLANDLMLIKLDESVSESDTIRSISIASQCPTAGNSCLVSGWGLLANGRMPTVLQCVNVSVVSEEVCSKLYDPLYHPSMFCAGGGQDQKDSCNGDSGGPLICNGYLQGLVSFGKAPCGQVGVPGVYTNLCKFTEWIEKTVQAS | not failed
MATASIAIAETPLVNYALRRGDDALVLGHRLSEWCGHAPMLEEDMALANIGLDLIGQARELFNYAAEVEGAANTEDSLAYLRDVRQYRNLLLVEQPNGDFARTMLRQLFYSAFADSYWRAMMGSSDPTLAAIAAKSEKESAYHLRHASEWVIRLGDGTEESHRRAQAAVDELWAFTGEMFQVDDGDAALIADGIAIDPERLRAGWSETVASVLARATLQQPSSSWMQKGGRAGHHSEHLGHLLSELQSLQRSFPGATW | failed
MATATETSKATTKTQASAAADRESLTVSRAFNAPRDLVFQAWSAAEHLKHWFCPQGFTIPECEVEFRPGGKFDLWMRSLDGNYSHWIRGHYVEIIPHSRLVLDMTVVTEAGVALFNANTSVTFETVCGGTEMSVTQRYTALDPSAGNFTRGAEEGWAQTLDRLEKEVARIAAATPARSVAHGVFTIERTYDASPELVFRALSDPVAKAQWFNGGPGYTEVKRTMDVRPGGREHLQGRWENGLVSTFDAVYFDVIPNERLVYSYEMHMGERKISVSLATFELKRAGQGTRLVMTEQGAFLDGYDDAGSREHGSGLLLDAIGEWLKAMTKR | failed
MATDTAERRIAHVRGVTVTAIACLAGVAAAVVSAAVADGAGDTLGLYVLVGGIIVQFPLLRVLEMAGLQLDVDDFGAKDYLYIAFMTFAMWFVCWTVLLTTGASV | failed
MATEPLTHPTAAPKRTRDLLAGLSIAGLLLPEAVAYSSIAALPPQAGVIALFAGLLCYGLLGTSRFAIVSATSSSAAVLAAATLSLAGGDAQLRLSLAFALVLLTGVFFLLAGLFRLGGVTAFIAKPVLRGFAFGLALTIVLKQFATVVGVHLSTGNLVRFLPQLLEQWPQWNWAGAAVAAVALLVLGICSRIPYVPGGLVAVVIGIGAGQWFNLPAHGVDLIGVIELKLEVPSLPQLPFADWLRLGELAFALVMILYAESYGSISSFALKHGDRVSSNRDLLALGASNLLSGLFHGMPAGAGYSATSANEAAGARSRLAGLTAAAVMLLIVLTVLPYIALTPEPVLAAIVMYALGHGLSLQPLGRYFIWRRDRVLVICAVSAVLVLGVLDGLLLSVGISILLLLRQMSAADIQILGQLGSGHDFVDLSRHPQARQVPGVLILRPGEALFFANAERILGGALRLIRHVQAPIHSIILSLEESPDLDGTSIEALDEFFRQVSLEHKHLALARLKHEAKDALALLPSSREYQVLLSGTSVDDTLQESLRGWKAGAFSQA | failed
MATFSLGKHPHVELCDLLKLEGWSESGAQAKIAIAEGQVKVDGAVETRKRCKIVAGQTVSFAGHSVQVVA | not failed
